Reference: US20120231006A1 (Amgen, published 2012)
Where a chain is given by its changes, count along the chain named.

B1: mAb 5C1.1 (antibody, human IgG2, lambda, V domains shown)
VH: QVQLVQSGAEVKKPGASVKVSCKASGYTFTDYYMNWVRQAPGQGLEWMGWINPNSGGTKYAQKFQGRVTMTRDTSIRTAYMELSRLRSDDTAVYYCAREYGGNSDWFDPWGQGTLVTVSS
VL: QSVLTQPPSVSGAPGQRVTISCTGSSSNIGAGYDVHWYQQLPGTAPKLLIYGNSNRPSGVPDRFSGSKSGTSASLAITGLQAEDEADYYCQSYDNRLSDSVVIGGGTKLAVQG
notes: fully human IgG2 lambda, Campaign 2
B2: mAb 5B1.1 (antibody, human IgG2, lambda, V domains shown)
VH: B1 VH with M34I, T58S, K59S, R77S, Y80H, S84I, Y100R, N103I, S104E
VL: QSVLTQPPSVSGAPGQRVTISCTGSSSNIGAGYDVHWYQQLPGTAPKLLIYGNSNRPSGVPDRFSGSKSGTSASLAITKFQAEDEAVYYCQSYGSGLSGVVFGGGTKLTVLG
notes: fully human IgG2 lambda, Campaign 2; also called mAb 5Bl1.1
B3: mAb 2B4.1 (antibody, human IgG2, lambda, V domains shown)
VH: QVQLVQSGAEVKKPGASVKVSCKASGYTFTDYYMHWVRQAPGQGLEWMGWINPNSGGTNYVQKFQDRVTMTRDTSITTAYMELTRLRSDDTAVYYCAREEGDYGMDVWGQGTTVTVSS
VL: QSVLTQPPSVSGAPGQRVTISCTGSNSNIGTGYDVHWYQKLPGTAPRLLIYSHFNRPSGVPDRFSGSTSGTSASLAITGLQAEDEADYYCQSYDSSLSGSVFGGGTKLTVLG

The binders below were run against T1, hOrai1-mOrai1 ECL2 chimeric protein (human/mouse chimera, UniProt Q96D31 1-301) (assay: FACS, 293EBNA).
T1 construct: human Orai1 with mouse ECL2; also called Ch
Set-up: concentration or dose not given beside the values
Excerpt: (§1) FIG. 16A-D illustrates the results of FACS analysis showing binding to the indicated mOrai1-hOrai1 ECL2 chimeric mutants expressed on the surface of HEK-293-EBNA cells. Transfected cells were stained first with recombinant monoclonal antibodies then counter-stained with a secondary phycoerythrin-labeled goat (“Gt”) anti-human (“Hu”) IgG F(ab′)₂ antibody fragment and visualized using FACS. In FIG. 16B and FIG. 16D, The values of Relative Fluorescence Intensity as Percent of Control (RFI-POC) are calculated from the relative fluorescence intensity geometric mean (Geo Mean). The geometric mean is an average calculated by multiplying a series of numbers and taking the nth root where n is the number of numbers in the series. It is a statistical average of a set of transformed numbers often used to represent a central tendency in a highly variable data set that minimizes the effects of extreme values.
(§2) Table 11A and Table 11B feature a schematic representation of the POC data from FIG. 16B and FIG. 16D, respectively, where the binding results are recorded as (+++) denoting binding POC from 40% to 100%, (++) for POC of 5% to less than 40%, (+) for POC from 1% to less than 5% and (−) as lack of binding with POC less than 1%.

T1 sequence (Q96D31 other isoform, or with tags, fused parts or gaps mutant): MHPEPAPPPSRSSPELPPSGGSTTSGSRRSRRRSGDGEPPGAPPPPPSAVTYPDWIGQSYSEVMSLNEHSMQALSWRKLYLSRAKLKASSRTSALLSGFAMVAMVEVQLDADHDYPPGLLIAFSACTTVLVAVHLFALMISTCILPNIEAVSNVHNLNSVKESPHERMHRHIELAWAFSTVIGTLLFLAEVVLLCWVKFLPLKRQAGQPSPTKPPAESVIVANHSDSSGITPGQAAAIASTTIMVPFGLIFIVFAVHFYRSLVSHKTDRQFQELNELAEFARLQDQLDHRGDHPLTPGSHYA

| Binder | POC (percent of control, FACS Geo Mean relative to binding to Ch. 1) | POC (percent of control, FACS Geo Mean relative to Ch. 1) |
| --- | --- | --- |
| B1 | < 1% |  |
| B2 | < 1% |  |
| B3 |  | < 1% |

Each binder was assayed against T2, mOrai1-hOrai1 ECL2 (…) protein (human/mouse chimera, UniProt Q8BWG9 1-304 (mouse entry)) (assay: FACS, 293EBNA).
T2 construct: also called Ch
Set-up: concentration or dose not given beside the values
Excerpt: as §1, §2
T2 sequence (Q8BWG9 other isoform, or with tags, fused parts or gaps): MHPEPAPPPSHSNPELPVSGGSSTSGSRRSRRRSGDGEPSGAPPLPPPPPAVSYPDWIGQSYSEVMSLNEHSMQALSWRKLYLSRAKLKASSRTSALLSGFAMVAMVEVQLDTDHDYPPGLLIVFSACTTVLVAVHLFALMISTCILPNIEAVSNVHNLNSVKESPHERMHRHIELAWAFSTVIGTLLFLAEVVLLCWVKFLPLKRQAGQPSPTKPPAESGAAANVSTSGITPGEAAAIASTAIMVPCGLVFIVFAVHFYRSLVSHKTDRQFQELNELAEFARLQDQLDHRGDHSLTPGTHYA

| Binder | POC (percent of control, FACS Geo Mean relative to binding to Ch. 1) | POC (percent of control, FACS Geo Mean relative to Ch. 1) |
| --- | --- | --- |
| B1 | < 1% |  |
| B2 | < 1% |  |
| B3 |  | < 1% |

The binders below were run against T3, mOrai1-hOrai1 ECL2 (SPTKPPAE) protein (human/mouse chimera, UniProt Q8BWG9 1-304 (mouse entry)) (assay: FACS, 293EBNA).
T3 construct: also called Ch
Set-up: concentration or dose not given beside the values
Excerpt: as §1, §2

T3 sequence (Q8BWG9 other isoform, or with tags, fused parts or gaps): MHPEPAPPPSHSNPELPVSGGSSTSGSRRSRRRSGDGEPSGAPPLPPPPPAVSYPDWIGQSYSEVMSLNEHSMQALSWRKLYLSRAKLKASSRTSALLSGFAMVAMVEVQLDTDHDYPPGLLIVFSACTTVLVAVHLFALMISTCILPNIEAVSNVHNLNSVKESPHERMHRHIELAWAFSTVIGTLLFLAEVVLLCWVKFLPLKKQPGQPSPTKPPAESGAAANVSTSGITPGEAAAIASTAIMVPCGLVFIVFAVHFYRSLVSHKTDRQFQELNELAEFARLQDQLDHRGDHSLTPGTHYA

| Binder | POC (percent of control, FACS Geo Mean relative to binding to Ch. 1) | POC (percent of control, FACS Geo Mean relative to Ch. 1) |
| --- | --- | --- |
| B1 | < 1% |  |
| B2 | < 1% |  |
| B3 |  | < 1% |

Each binder was assayed against T4, mOrai1-hOrai1 ECL2 (KPPAE) protein (human/mouse chimera, UniProt Q8BWG9 1-304 (mouse entry)) (assay: FACS, 293EBNA).
T4 construct: also called Ch
Set-up: concentration or dose not given beside the values
Excerpt: as §1, §2

T4 sequence (Q8BWG9 other isoform, or with tags, fused parts or gaps): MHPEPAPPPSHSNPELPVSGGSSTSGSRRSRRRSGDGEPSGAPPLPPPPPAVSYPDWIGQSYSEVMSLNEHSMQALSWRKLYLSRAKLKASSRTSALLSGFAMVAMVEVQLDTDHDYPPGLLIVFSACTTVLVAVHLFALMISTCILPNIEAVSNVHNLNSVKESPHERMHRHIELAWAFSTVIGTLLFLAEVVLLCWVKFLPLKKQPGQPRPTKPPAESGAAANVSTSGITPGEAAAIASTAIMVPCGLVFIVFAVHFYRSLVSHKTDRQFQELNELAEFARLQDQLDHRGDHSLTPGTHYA

| Binder | POC (percent of control, FACS Geo Mean relative to binding to Ch. 1) | POC (percent of control, FACS Geo Mean relative to Ch. 1) |
| --- | --- | --- |
| B1 | < 1% |  |
| B2 | < 1% |  |
| B3 |  | < 1% |

These binders were tested against T5, mOrai1-hOrai1 ECL2 (…) protein (human/mouse chimera, UniProt Q8BWG9 1-304 (mouse entry)) (assay: FACS, 293EBNA).
T5 construct: also called Ch
Set-up: concentration or dose not given beside the values
Excerpt: as §1, §2
T5 sequence (Q8BWG9 other isoform, or with tags, fused parts or gaps): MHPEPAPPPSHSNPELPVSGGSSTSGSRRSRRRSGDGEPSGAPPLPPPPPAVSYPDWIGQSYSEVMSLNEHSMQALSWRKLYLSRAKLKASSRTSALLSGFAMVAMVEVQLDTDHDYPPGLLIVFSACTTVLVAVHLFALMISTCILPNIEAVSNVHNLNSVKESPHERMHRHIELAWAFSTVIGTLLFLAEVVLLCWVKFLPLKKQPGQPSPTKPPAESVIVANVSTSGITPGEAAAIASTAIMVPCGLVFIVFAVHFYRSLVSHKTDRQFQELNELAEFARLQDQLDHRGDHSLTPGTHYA

| Binder | POC (percent of control, FACS Geo Mean relative to binding to Ch. 1) | POC (percent of control, FACS Geo Mean relative to Ch. 1) |
| --- | --- | --- |
| B1 | < 1% |  |
| B2 | < 1% |  |
| B3 |  | < 1% |

Each binder was assayed against T6, mOrai1-hOrai1 ECL2 (…) protein (human/mouse chimera, UniProt Q8BWG9 1-304 (mouse entry)) (assay: FACS, 293EBNA).
T6 construct: also called Ch
Set-up: concentration or dose not given beside the values
Excerpt: as §1, §2
T6 sequence (Q8BWG9 other isoform, or with tags, fused parts or gaps): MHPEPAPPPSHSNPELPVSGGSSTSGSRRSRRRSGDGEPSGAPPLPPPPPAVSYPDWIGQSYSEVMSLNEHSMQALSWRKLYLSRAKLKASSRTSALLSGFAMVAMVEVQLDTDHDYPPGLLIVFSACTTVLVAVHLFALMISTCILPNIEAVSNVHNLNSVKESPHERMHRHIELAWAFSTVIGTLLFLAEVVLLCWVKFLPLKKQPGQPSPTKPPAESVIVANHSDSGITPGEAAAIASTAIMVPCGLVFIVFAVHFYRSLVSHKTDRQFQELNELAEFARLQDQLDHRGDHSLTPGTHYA

| Binder | POC (percent of control, FACS Geo Mean relative to binding to Ch. 1) | POC (percent of control, FACS Geo Mean relative to Ch. 1) |
| --- | --- | --- |
| B1 | < 1% |  |
| B2 | < 1% |  |
| B3 |  | < 1% |

These binders were tested against T7, mOrai1-hOrai1 ECL2 (…) protein (human/mouse chimera, UniProt Q8BWG9 1-304 (mouse entry)) (assay: FACS, 293EBNA).
T7 construct: also called Ch
Set-up: concentration or dose not given beside the values
Excerpt: as §1, §2
T7 sequence (Q8BWG9 other isoform, or with tags, fused parts or gaps): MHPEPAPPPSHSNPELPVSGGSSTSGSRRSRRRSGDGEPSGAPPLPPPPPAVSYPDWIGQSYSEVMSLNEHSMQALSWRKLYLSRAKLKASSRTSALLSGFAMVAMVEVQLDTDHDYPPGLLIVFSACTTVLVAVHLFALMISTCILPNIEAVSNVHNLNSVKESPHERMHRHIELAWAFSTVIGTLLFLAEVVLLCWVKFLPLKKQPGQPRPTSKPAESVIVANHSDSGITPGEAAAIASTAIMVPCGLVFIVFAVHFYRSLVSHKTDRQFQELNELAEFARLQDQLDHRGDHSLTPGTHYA

| Binder | POC (percent of control, FACS Geo Mean relative to binding to Ch. 1) | POC (percent of control, FACS Geo Mean relative to Ch. 1) |
| --- | --- | --- |
| B1 | < 1% |  |
| B3 |  | < 1% |

Each binder was assayed against T8, mOrai1-hOrai1 ECL2 (AESVIV) protein (human/mouse chimera, UniProt Q8BWG9 1-304 (mouse entry)) (assay: FACS, 293EBNA).
T8 construct: also called Ch
Set-up: concentration or dose not given beside the values
Excerpt: as §1, §2

T8 sequence (Q8BWG9 other isoform, or with tags, fused parts or gaps): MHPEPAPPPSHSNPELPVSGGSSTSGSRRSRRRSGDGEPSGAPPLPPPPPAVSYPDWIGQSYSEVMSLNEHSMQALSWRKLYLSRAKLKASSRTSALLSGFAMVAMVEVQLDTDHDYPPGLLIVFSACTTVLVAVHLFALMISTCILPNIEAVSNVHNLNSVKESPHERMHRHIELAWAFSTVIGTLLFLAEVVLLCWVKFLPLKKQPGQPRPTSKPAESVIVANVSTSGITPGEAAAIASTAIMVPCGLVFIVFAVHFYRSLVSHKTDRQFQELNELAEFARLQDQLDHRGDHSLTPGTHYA

| Binder | POC (percent of control, FACS Geo Mean relative to binding to Ch. 1) | POC (percent of control, FACS Geo Mean relative to Ch. 1) |
| --- | --- | --- |
| B1 | < 1% |  |
| B3 |  | < 1% |

What follows are binders tested against T9, human Orai1 (human, UniProt Q96D31 1-301) (assay: cell-based or functional assay).
T9 sequence (Q96D31 whole entry): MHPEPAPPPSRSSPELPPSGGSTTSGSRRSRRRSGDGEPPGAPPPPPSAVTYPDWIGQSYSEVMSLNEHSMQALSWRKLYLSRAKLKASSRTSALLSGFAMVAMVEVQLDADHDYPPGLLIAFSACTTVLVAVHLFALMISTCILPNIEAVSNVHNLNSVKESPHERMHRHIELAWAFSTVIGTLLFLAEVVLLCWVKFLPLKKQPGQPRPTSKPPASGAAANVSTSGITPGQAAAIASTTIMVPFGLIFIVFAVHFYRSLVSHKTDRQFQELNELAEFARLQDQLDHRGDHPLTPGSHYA

| Binder | IC50 IFN-γ, whole blood Donor A | IC50 IFN-γ, whole blood Donor B | IC50 IL-2, whole blood Donor A | IC50 IL-2, whole blood Donor B |
| --- | --- | --- | --- | --- |
| B1 | 5.42 nM | 2.41 nM | 2.18 nM | 1.24 nM |
| B2 | 7.4 nM | 10.7 nM | 2.73 nM | 4.45 nM |

Each binder was assayed against T10, mOrai1-hOrai1 ECL2 chimeric protein (human/mouse chimera, UniProt Q8BWG9 1-304 (mouse entry)) (assay: FACS, 293EBNA, RFI-POC grade).
T10 construct: mouse Orai1 with human ECL2; also called Ch
Set-up: concentration or dose not given beside the values
Excerpt: as §1, §2

T10 sequence (Q8BWG9 other isoform, or with tags, fused parts or gaps mutant): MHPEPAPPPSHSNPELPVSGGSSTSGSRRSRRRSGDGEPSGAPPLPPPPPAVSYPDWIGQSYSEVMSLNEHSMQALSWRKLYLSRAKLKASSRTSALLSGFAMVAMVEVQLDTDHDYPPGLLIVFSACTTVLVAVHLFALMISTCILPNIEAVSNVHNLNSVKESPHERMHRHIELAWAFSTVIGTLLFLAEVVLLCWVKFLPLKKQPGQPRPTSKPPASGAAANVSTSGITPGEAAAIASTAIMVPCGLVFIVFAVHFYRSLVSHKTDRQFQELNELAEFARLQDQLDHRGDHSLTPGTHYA

| Binder | POC (percent of control, FACS Geo Mean relative to binding to Ch. 1) |
| --- | --- |
| B1 | 40 to 100% |
| B2 | 40 to 100% |

The binders below were run against T11, mOrai1-hOrai1 ECL2 (VIV) protein (human/mouse chimera, UniProt Q8BWG9 1-304 (mouse entry)) (assay: FACS, 293EBNA, RFI-POC grade).
T11 construct: also called Ch
Set-up: concentration or dose not given beside the values
Excerpt: as §1, §2

T11 sequence (Q8BWG9 other isoform, or with tags, fused parts or gaps): as the sequence (Q8BWG9 other isoform, or with tags, fused parts or gaps mutant) above, with G221V, A222I, A223V counted along it

| Binder | POC (percent of control, FACS Geo Mean relative to binding to Ch. 1) |
| --- | --- |
| B1 | 40 to 100% |
| B2 | 40 to 100% |

What follows are binders tested against T12, mOrai1-hOrai1 ECL2 (HSD) protein (human/mouse chimera, UniProt Q8BWG9 1-304 (mouse entry)) (assay: FACS, 293EBNA, RFI-POC grade).
T12 construct: also called Ch
Set-up: concentration or dose not given beside the values
Excerpt: as §1, §2

T12 sequence (Q8BWG9 other isoform, or with tags, fused parts or gaps): as the sequence (Q8BWG9 other isoform, or with tags, fused parts or gaps mutant) above, with V226H, T228D counted along it

| Binder | POC (percent of control, FACS Geo Mean relative to binding to Ch. 1) |
| --- | --- |
| B1 | 40 to 100% |
| B2 | 40 to 100% |

These binders were tested against T9, human Orai1 (assay: FACS Kd, AM1-CHO/hOrai1/hSTIM1-YFP cells).
Experimental: The equilibrium plates were centrifuged at 500 g for 3 minutes and cell pellets were washed twice with 200 μL of ice cold FACS buffer (1×D-PBS+2% FBS). The cells were then incubated with a secondary antibody, goat anti-human Fc Cy5 at 5 μg/mL and 100 μL per well for 1 h on ice in the dark. Following the incubation, the cells were washed twice with 200 μL of ice-cold FACS buffer before flow cytometry analysis. The GeoMean values gated on live cell population measure the bound [Ab]. The inverse of the GeoMean values that reflects theoretical free [Ag] in the equilibrium solution was then calculated. The inverse values of the GeoMean read were used in KinExA® Pro software for analysis and Kd calculation for each antibody. The free [Ag] measure was plotted against the starting concentration of titrating component and from these plots at two different cell concentrations the Kd was obtained from curve fitting using n-curve analysis in KinExA Pro software. […] Shown in Table 14 (below) are the equilibrium dissociation constant (Kd) values of invented mAbs determined by FACS Kd measurement.

| Binder | Kd |
| --- | --- |
| B2 | 0.443 nM |
| B3 | 1.8 nM |

What follows are binders tested against T2, mOrai1-hOrai1 ECL2 (…) protein (assay: flow cytometry on HEK-293 cells transfected with the chimera (loss of binding experiment)).

| Binder | binding result |
| --- | --- |
| B1 | no binding |
| B2 | no binding |
| B3 | no binding |

The binders below were run against T3, mOrai1-hOrai1 ECL2 (SPTKPPAE) protein in the same assay as above.

| Binder | binding result |
| --- | --- |
| B1 | no binding |
| B2 | no binding |
| B3 | no binding |

The binders below were run against T4, mOrai1-hOrai1 ECL2 (KPPAE) protein in the same assay as above.

| Binder | binding result |
| --- | --- |
| B1 | no binding |
| B2 | no binding |
| B3 | no binding |

The binders below were run against T5, mOrai1-hOrai1 ECL2 (…) protein in the same assay as above.

| Binder | binding result |
| --- | --- |
| B1 | no binding |
| B2 | no binding |
| B3 | no binding |

What follows are binders tested against T6, mOrai1-hOrai1 ECL2 (…) protein in the same assay as above.

| Binder | binding result |
| --- | --- |
| B1 | no binding |
| B2 | no binding |
| B3 | no binding |

The binders below were run against T7, mOrai1-hOrai1 ECL2 (…) protein in the same assay as above.

| Binder | binding result |
| --- | --- |
| B1 | no binding |
| B3 | no binding |

Each binder was assayed against T8, mOrai1-hOrai1 ECL2 (AESVIV) protein in the same assay as above.

| Binder | binding result |
| --- | --- |
| B1 | no binding |
| B3 | no binding |
